Experimental findings from patent US20230212319A1, “NOVEL ANTIGEN BINDING DOMAINS AND SYNTHETIC ANTIGEN RECEPTORS INCORPORATING THE SAME” (University of Southern California, priority 2020, published 2023) are described below.

First the molecules themselves.
B1: 22032 (protein)
chain: MALPVTALLLPLALLLHAARPQLQLQESGPGLVKPSETLSLTCTVSGDSISSGDYYWGWIRQPPGKGLEWIGHIYYSGVTYYNPSLKSRVTISVDTSRNQFSLKLSSVTAADTAVYYCTREDSSNWRSRGQGTLVTVSSLEGSEVKTDSTDHVKPKETENTKQPSKSCHKPKAIVHTEKVNMMSLTVLGLRMLFAKTVAVNFLLTAKLFFLRAKRSGSGVKQTLNFDLLKLAGDVESNPGPTSMDWIWRILFLVGAATGAHSFEVQLVESGGGVVQPGRSLRLSCAASGFSFSGYGMHWVRQAPGKGLEWVAYISYDGSNKYYADSVKGRFTISRDNSKNTLYLQMNSLRAEDTAVYYCAKDPAWGLRLGESSSYDFDIWGQGTMVTVSSTRIQNPDPAVYQLRDSKSSDKSVCLFTDFDSQTNVSQSKDSDVYITDKCVLDMRSMDFKSNSAVAWSNKSDFACANAFNNSIIPEDTFFPSPESSCDVKLVEKSFETDTNLNFQNLSVIGFRILLLKVAGFNLLMTLRLWSSRAKRSGSGVKQTLNFDLLKLAGDVESNPGPSRGHMTEYKPTVRLATRDDVPRAVRTLAAAFADYPATRHTVDPDRHIERVTELQELFLTRVGLDIGKVWVADDGAAVAVWTTPESVEAGAVFAEIGPRMAELSGSRLAAQQQMEGLLAPHRPKEPAWFLATVGVSPDHQGKGLGSAVVLPGVEAAERAGVPAFLETSAPRNLPFYERLGFTVTADVEVPEGPRTWCMTRKPGA
B2: 22008 (protein)
chain: MALPVTALLLPLALLLHAARPQLQLQESGPGLVKPSETLSLTCTVSGDSISSGDYYWGWIRQPPGKGLEWIGHIYYSGVTYYNPSLKSRVTISVDTSRNQFSLKLSSVTAADTAVYYCTREDSSNWRSRGQGTLVTVSSLEDLKNVFPPEVAVFEPSEAEISHTQKATLVCLATGFYPDHVELSWWVNGKEVHSGVCTDPQPLKEQPALNDSRYCLSSRLRVSATFWQNPRNHFRCQVQFYGLSENDEWTQDRAKPVTQIVSAEAWGRADCGFTSESYQQGVLSATILYEILLGKATLYAVLVSALVLMAMVKRKDSRGRAKRSGSGATNFSLLKQAGDVEENPGPTSMDWIWRILFLVGAATGAHSFEVQLLESGGGLVQPGGSLRLSCAASGFIFSSYAMSWVRQAPGKGQEWVSGVSGTGVNTYYADSVKGRFTISRDNSKNTLYLQMNSLRAEDTAVYYCASGKGWDSGSWYEDYRGQGTLVTVSSTRIQNPDPAVYQLRDSKSSDKSVCLFTDFDSQTNVSQSKDSDVYITDKCVLDMRSMDFKSNSAVAWSNKSDFACANAFNNSIIPEDTFFPSPESSCDVKLVEKSFETDTNLNFQNLSVIGFRILLLKVAGFNLLMTLRLWSSRAKRSGSGVKQTLNFDLLKLAGDVESNPGPSRGHMTEYKPTVRLATRDDVPRAVRTLAAAFADYPATRHTVDPDRHIERVTELQELFLTRVGLDIGKVWVADDGAAVAVWTTPESVEAGAVFAEIGPRMAELSGSRLAAQQQMEGLLAPHRPKEPAWFLATVGVSPDHQGKGLGSAVVLPGVEAAERAGVPAFLETSAPRNLPFYERLGFTVTADVEVPEGPRTWCMTRKPGA
B3: 22011 (protein)
chain: MALPVTALLLPLALLLHAARPQLQLQESGPGLVKPSETLSLTCTVSGDSISSGDYYWGWIRQPPGKGLEWIGHIYYSGVTYYNPSLKSRVTISVDTSRNQFSLKLSSVTAADTAVYYCTREDSSNWRSRGQGTLVTVSSLEDLKNVFPPEVAVFEPSEAEISHTQKATLVCLATGFYPDHVELSWWVNGKEVHSGVCTDPQPLKEQPALNDSRYCLSSRLRVSATFWQNPRNHFRCQVQFYGLSENDEWTQDRAKPVTQIVSAEAWGRADCGFTSESYQQGVLSATILYEILLGKATLYAVLVSALVLMAMVKRKDSRGRAKRSGSGATNFSLLKQAGDVEENPGPTSMDWIWRILFLVGAATGAHSFEQLQLQESGPGLVKPSETLSLTCTVSGGSISSGDYYWGWIRQPPGKGLEWIGHIYYSGATYYNPSLKSRVTISVDTSRNQFSLKLSSVTAADTAVYYCTRDDSSNWRSRGQGTLVTVSSTRIQNPDPAVYQLRDSKSSDKSVCLFTDFDSQTNVSQSKDSDVYITDKCVLDMRSMDFKSNSAVAWSNKSDFACANAFNNSIIPEDTFFPSPESSCDVKLVEKSFETDTNLNFQNLSVIGFRILLLKVAGFNLLMTLRLWSSRAKRSGSGVKQTLNFDLLKLAGDVESNPGPSRGHMTEYKPTVRLATRDDVPRAVRTLAAAFADYPATRHTVDPDRHIERVTELQELFLTRVGLDIGKVWVADDGAAVAVWTTPESVEAGAVFAEIGPRMAELSGSRLAAQQQMEGLLAPHRPKEPAWFLATVGVSPDHQGKGLGSAVVLPGVEAAERAGVPAFLETSAPRNLPFYERLGFTVTADVEVPEGPRTWCMTRKPGA
B4: 22033 (protein)
chain: MALPVTALLLPLALLLHAARPQLQLQESGPGLVKPSETLSLTCTVSGDSISSGDYYWGWIRQPPGKGLEWIGHIYYSGVTYYNPSLKSRVTISVDTSRNQFSLKLSSVTAADTAVYYCTREDSSNWRSRGQGTLVTVSSLEDKTHTCPPCPAEVKTDSTDHVKPKETENTKQPSKSCHKPKAIVHTEKVNMMSLTVLGLRMLFAKTVAVNFLLTAKLFFLRAKRSGSGVKQTLNFDLLKLAGDVESNPGPTSMDWIWRILFLVGAATGAHSFEVQLVESGGGVVQPGRSLRLSCAASGFSFSGYGMHWVRQAPGKGLEWVAYISYDGSNKYYADSVKGRFTISRDNSKNTLYLQMNSLRAEDTAVYYCAKDPAWGLRLGESSSYDFDIWGQGTMVTVSSTRIQNPDPAVYQLRDSKSSDKSVCLFTDFDSQTNVSQSKDSDVYITDKCVLDMRSMDFKSNSAVAWSNKSDFACANAFNNSIIPEDTFFPSPESSCDVKLVEKSFETDTNLNFQNLSVIGFRILLLKVAGFNLLMTLRLWSSRAKRSGSGVKQTLNFDLLKLAGDVESNPGPSRGHMTEYKPTVRLATRDDVPRAVRTLAAAFADYPATRHTVDPDRHIERVTELQELFLTRVGLDIGKVWVADDGAAVAVWTTPESVEAGAVFAEIGPRMAELSGSRLAAQQQMEGLLAPHRPKEPAWFLATVGVSPDHQGKGLGSAVVLPGVEAAERAGVPAFLETSAPRNLPFYERLGFTVTADVEVPEGPRTWCMTRKPGA
B5: 22031 (protein)
chain: MALPVTALLLPLALLLHAARPQLQLQESGPGLVKPSETLSLTCTVSGDSISSGDYYWGWIRQPPGKGLEWIGHIYYSGVTYYNPSLKSRVTISVDTSRNQFSLKLSSVTAADTAVYYCTREDSSNWRSRGQGTLVTVSSLEGSPIKTDVITMDPKDNCSKDANDTLLLQLTNTSAYYMYLLLLLKSVVYFAIITCCLLRRTAFCCNGEKSRAKRSGSGATNFSLLKQAGDVEENPGPTSMDWIWRILFLVGAATGAHSFEVQLVESGGGVVQPGRSLRLSCAASGFSFSGYGMHWVRQAPGKGLEWVAYISYDGSNKYYADSVKGRFTISRDNSKNTLYLQMNSLRAEDTAVYYCAKDPAWGLRLGESSSYDFDIWGQGTMVTVSSTRIQNPDPAVYQLRDSKSSDKSVCLFTDFDSQTNVSQSKDSDVYITDKCVLDMRSMDFKSNSAVAWSNKSDFACANAFNNSIIPEDTFFPSPESSCDVKLVEKSFETDTNLNFQNLSVIGFRILLLKVAGFNLLMTLRLWSSRAKRSGSGVKQTLNFDLLKLAGDVESNPGPSRGHMTEYKPTVRLATRDDVPRAVRTLAAAFADYPATRHTVDPDRHIERVTELQELFLTRVGLDIGKVWVADDGAAVAVWTTPESVEAGAVFAEIGPRMAELSGSRLAAQQQMEGLLAPHRPKEPAWFLATVGVSPDHQGKGLGSAVVLPGVEAAERAGVPAFLETSAPRNLPFYERLGFTVTADVEVPEGPRTWCMTRKPGA

The assay relates to RAJI cells. Put plainly: JNG assay, co-culture with RAJI cells. The format is cell-based. The following applies: JNG cells expressing construct, co-culture with Raji. Put shortly: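 Jurkat NFAT-GFP (JNG) cells stably transduced with SARs by lentivirus, with drug selection where the construct carried a resistance gene, then co-cultured with target cells at E:T ~1:2 for ~4–18 h. % GFP-positive cells measured by FACS against parental JNG; +/- to 5+ correspond to ~5–50% GFP-positive.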
As to B1, the “NFAT-GFP ASSAY: Raji” value was “+/- (refer to approximately 5%, 10%, 20%, 30%, 40% and 50% GFP positive cells)”.
B2: the “NFAT-GFP ASSAY: Raji” value is “+/- (refer to approximately 5%, 10%, 20%, 30%, 40% and 50% GFP positive cells)”.
As to B3, the “NFAT-GFP ASSAY: Raji” value is “+/- (refer to approximately 5%, 10%, 20%, 30%, 40% and 50% GFP positive cells)”.
For B4, the “NFAT-GFP ASSAY: Raji” value is “+/- (refer to approximately 5%, 10%, 20%, 30%, 40% and 50% GFP positive cells)”.
To B5 belongs “+/- (refer to approximately 5%, 10%, 20%, 30%, 40% and 50% GFP positive cells)”.
